Assay [1] has as its target Rat GIP receptor (rat) (UniProt P43219). The assay can be described thus: radioligand binding.
In assay [2] the target is Human GIP receptor (human) (UniProt P48546). Briefly: radioligand binding.
The target in assay [3] is Mouse GIP receptor (mouse) (UniProt Q0P543). Briefly: radioligand binding.
The target in assay [4] is Rat GIP receptor (rat) (UniProt P43219).
The target of assay [5] is Human GIP receptor (human) (UniProt P48546).
The target of assay [6] is Mouse GIP receptor (mouse) (UniProt Q0P543).
The target in a further assay is GIP receptor. Particulars: read-out: affinity (IC50); ref Deacon et al., 2006; cited from earlier work.
Another assay deals with pigs. Particulars: ref Deacon et al., 2006; cited from earlier work.
Assay [7] deals with Rat GIP receptor (rat) (UniProt P43219). This is another data set of the same source.
For assay [8], the system named is perfused pancreata from GIPR KO mice. The note with it: 100 nM mouse (Pro3)GIP, 1 nM mouse GIP, 10 mM arginine, 7 mM glucose, N=3.
The test system of the next assay is perfused rat pancreas. The note with it: 100 nM (Pro3)GIP, 1 nM GIP, 10 mM arginine, 7 mM glucose, radioimmunoassay, N=6-9.
Assay [9] has as its target T1, Rat GIP receptor (rat, UniProt P43219 19-455).
T1 sequence: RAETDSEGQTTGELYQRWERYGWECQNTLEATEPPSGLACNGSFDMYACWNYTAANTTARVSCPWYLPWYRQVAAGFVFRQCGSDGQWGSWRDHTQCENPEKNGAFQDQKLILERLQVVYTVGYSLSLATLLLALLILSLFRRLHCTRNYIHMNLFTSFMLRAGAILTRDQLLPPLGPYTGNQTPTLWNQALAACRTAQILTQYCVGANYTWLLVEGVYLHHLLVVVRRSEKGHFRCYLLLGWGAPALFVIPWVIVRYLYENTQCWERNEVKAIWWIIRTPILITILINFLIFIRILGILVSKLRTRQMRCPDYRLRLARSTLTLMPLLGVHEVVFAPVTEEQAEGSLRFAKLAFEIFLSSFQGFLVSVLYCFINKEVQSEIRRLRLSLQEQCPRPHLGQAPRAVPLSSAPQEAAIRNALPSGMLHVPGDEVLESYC
Briefly: radioligand binding.

Assay [10] concerns the target T2, Human GIP receptor (human, UniProt P48546 22-466).
T2 sequence: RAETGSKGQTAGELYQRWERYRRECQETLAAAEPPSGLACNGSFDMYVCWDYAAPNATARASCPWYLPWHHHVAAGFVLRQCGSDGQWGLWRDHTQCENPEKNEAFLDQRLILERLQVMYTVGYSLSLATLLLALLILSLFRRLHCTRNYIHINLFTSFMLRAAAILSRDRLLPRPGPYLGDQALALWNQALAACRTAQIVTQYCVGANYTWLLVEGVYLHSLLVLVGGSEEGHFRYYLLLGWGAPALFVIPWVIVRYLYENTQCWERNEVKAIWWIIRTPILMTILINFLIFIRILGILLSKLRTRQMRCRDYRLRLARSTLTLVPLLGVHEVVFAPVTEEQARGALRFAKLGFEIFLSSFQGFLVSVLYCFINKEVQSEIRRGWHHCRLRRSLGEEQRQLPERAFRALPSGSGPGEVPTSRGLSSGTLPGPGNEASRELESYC
The assay can be described thus: radioligand binding.

The target in assay [11] is T3, Mouse GIP receptor (mouse, UniProt Q0P543 19-460).
T3 sequence: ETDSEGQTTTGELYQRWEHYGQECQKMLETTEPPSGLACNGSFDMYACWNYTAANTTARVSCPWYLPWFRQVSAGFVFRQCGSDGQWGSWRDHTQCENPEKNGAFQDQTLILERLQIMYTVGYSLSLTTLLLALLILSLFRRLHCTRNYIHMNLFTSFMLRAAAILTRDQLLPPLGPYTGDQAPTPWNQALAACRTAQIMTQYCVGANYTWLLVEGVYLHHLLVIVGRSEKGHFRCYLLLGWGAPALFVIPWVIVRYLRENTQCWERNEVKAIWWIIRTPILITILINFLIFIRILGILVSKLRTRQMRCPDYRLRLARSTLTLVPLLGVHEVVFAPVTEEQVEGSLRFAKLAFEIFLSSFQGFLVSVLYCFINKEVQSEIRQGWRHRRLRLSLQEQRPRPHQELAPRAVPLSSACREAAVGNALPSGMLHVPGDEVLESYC
Briefly: cell-based or functional assay.

For assay [12], the target named is T1, Rat GIP receptor. The assay can be described thus: cell-based or functional assay.
For assay [13], the target named is T2, Human GIP receptor. The assay can be described thus: cell-based or functional assay.
The target of assay [14] is T3, Mouse GIP receptor. The assay can be described thus: radioligand binding.

Consider eight molecules from publication PMC4737396 (British Journal of Pharmacology, 2015).

As usually defined, the IC50 is the concentration needed to halve the response being measured. Broadly, the Ki is the equilibrium dissociation constant of an inhibitor or competing ligand from its target. Higher therefore signals lower affinity.

Where a chain is given by its changes, count along the chain named.

“Mouse (Pro3)GIP (from UniProt P48756 44-85) (peptide)”: the logIC50 was -8.1 with Rat GIP receptor (rat) [1], -8.1 in [2] and -8.3 in assay [3]. Further, the figures for the EC50 of cAMP accumulation in transfected COS-7 cells (with Rat GIP receptor (rat) [4]; in assay [6]) were 15 nM and 29 nM, respectively. For the same molecule, the Emax of cAMP accumulation in transfected COS-7 cells with Rat GIP receptor (rat) [4] was found to be 61; in assay [5], 67; in [6], 59.

“GIP(3–42): naturally occurring GIP metabolite (EGTFISDYSIAMDKIHQQDFVNWLLAQKGKKNDWKHNITQ; Gastric inhibitory polypeptide; UniProt P09681 54-93, looked up, fragment)”: the half-maximal inhibitory concentration (IC50) on GIP receptor was 22 nM. Moreover, the “antagonistic effect in vivo” value with pigs was “no antagonistic effect could be demonstrated”.

Human (Pro3)GIP (peptide): the logIC50 in [2] was -8; in [3] it was -7.4. Moreover, the EC50 of cAMP accumulation in transfected COS-7 cells worked out at 4.7 nM in [5] and 92 nM in [6]. Besides, the Emax of cAMP accumulation in transfected COS-7 cells in assay [6] came out at 71.

Turning to “Rat (Pro3)GIP (from UniProt Q06145 44-85) (peptide)”, the logIC50 in assay [3] is -8.1. The same molecule had an Emax of cAMP accumulation, normalised to rat GIP on the rat receptor (Figure 2B) with Rat GIP receptor (rat) [7] of 50%. Moreover, the values for the EC50 of cAMP accumulation in transfected COS-7 cells (in the assay with Rat GIP receptor (rat) [4]; in [6]) were 13 nM and 38 nM, respectively. The Emax of cAMP accumulation in transfected COS-7 cells in the assay with Rat GIP receptor (rat) [4] is 64; in assay [5] it was 73; in [6] it was 57.

`N=C(N)NCCC[C@H](N)C(=O)O` [arginine]: in assay [8], the glucagon secretion result is “induced secretion of the respective hormones”, the insulin secretion entry is on record as “induced secretion of the respective hormones” and the somatostatin secretion entry is “induced secretion of the respective hormones”. In addition, in the assay on perfused rat pancreas, the glucagon secretion result is recorded as “induced secretion of the respective hormones”, the insulin secretion result was “induced secretion of the respective hormones” and the somatostatin secretion entry is “induced secretion of the respective hormones”.

B1: Mouse GIP (glucose-dependent insulinotropic polypeptide, GIP(1-42)) (ligand)
peptide: YAEGTFISDYSIAMDKIRQQDFVNWLLAQRGKKSDWKHNITQ
B1: the values for the logIC50 with Rat GIP receptor [9] and in the assay with Human GIP receptor [10] were -8.9 and -8.7, respectively. The molecule further returned a Ki with Human GIP receptor [10] of 2 nM. The “Emax of cAMP accumulation in transfected COS-7 cells” value (from here on “Emax … in transfected COS-7 cells”) stood at 156 with Mouse GIP receptor [11], 120 in the assay with Rat GIP receptor [12] and 99 in the assay with Human GIP receptor [13].

B2: Human GIP (glucose-dependent insulinotropic polypeptide, GIP(1-42)) (ligand)
peptide: B1 peptide with R18H, R30K, S34N
Regarding B2, the “Emax … in transfected COS-7 cells” value with Rat GIP receptor [12] was 100.

B3: Rat GIP (glucose-dependent insulinotropic polypeptide, GIP(1-42)) (ligand)
peptide: B1 peptide with R30K, S34N, I40L
For the molecule B3, the logIC50 with Mouse GIP receptor [14] was -9.6; in the assay with Human GIP receptor [10], -8.9. Besides, the “Emax … in transfected COS-7 cells” value was found to be 144 in the assay with Mouse GIP receptor [11], 117 with Rat GIP receptor [12] and 113 with Human GIP receptor [13].
